Measurements: patent US20210317230A1 (HANGZHOU SUMGEN BIOTECH, published 2021)
One block for each binder: values may come before it.

Experiments:
[1] = target: T1, biotin-labeled CD47 (Biotin-Fc-CD47) (UniProt Q08722 19-141, limits assumed, biotin-labeled); experiment: competition ELISA: SIRPα-His coated at 1 µg/ml, Biotin-Fc-CD47 at 2 µg/ml; competitor SIRPα-His
T1 construct: not shown: Fc part
Experimental: SIRPα-His was coated on the assay plate at 1 μg/ml overnight at 4° C.; after washing with PBST, 10% of fetal calf serum was added and blocked at 37° C. for 1 hour; SS002M91, SG3847L1 or SG3847L2 was gradiently diluted respectively with 10% of fetal bovine blood, and Biotin-Fc-CD47 was added into the samples until a final concentration of 2 μg/ml, pre-incubated at 37° C. for 30 min, as the primary antibody; after the assay plate was washed with PBST, the primary antibody was added and incubated at 37° C. for 1 hour; after washing with PBST for 5 times, horseradish peroxidase-labeled avidin (Streptavidin-HRP, Jiaxuan Bio.) was added and incubated at 37° C. for 30 minutes; after washing with PBST for 5 times, each well was added with 100 μl TMB (eBioscience), placed in dark at room temperature (20±5° C.) for 1-5 min; then each well was added with 100 μl 2N H₂SO₄ stop solution to terminate the reaction of the substrate, OD values were read at 450 nm on the microplate reader, and the blocking effects of SS002M91, SG3847L1, SG3847L2 on CD47/SIRPα were analyzed.

CD38-His [2] = target: T2, CD38-His (UniProt P28907 43-300); experiment: bridging ELISA: CD38-His coated, fusion protein titrated, detected with Biotin-Fc-CD47 and streptavidin-HRP (simultaneous binding of CD38 and CD47)
T2 construct: also called target antigen CD38; not shown: His tag
T2 sequence (looked up): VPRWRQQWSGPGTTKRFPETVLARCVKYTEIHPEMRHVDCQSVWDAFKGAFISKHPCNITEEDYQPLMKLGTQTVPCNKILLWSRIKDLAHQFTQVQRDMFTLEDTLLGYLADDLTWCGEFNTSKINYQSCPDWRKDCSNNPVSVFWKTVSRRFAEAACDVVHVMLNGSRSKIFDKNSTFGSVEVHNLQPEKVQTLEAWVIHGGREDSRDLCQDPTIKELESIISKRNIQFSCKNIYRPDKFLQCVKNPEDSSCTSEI
Experimental: (1) Referring to the principle of FIG. 5, with the anti-CD38 humanized antibody SG003 as the control, the biological activities of the fusion proteins SG3847L1 and SG3847L2 to simultaneously bind two antigens CD38 and CD47 were analyzed by ELISA.
Target antigen CD38-His (1 μg/ml) was coated on ELISA bars, overnight at 4° C.; after washing with PBST, 10% of fetal calf serum was added and blocked at 37° C. for 1 hour; different concentrations of SG003 antibody, SG3847L1 or SG3847L2 fusion protein were added and reacted at 37° C. for 1 hour; after washing with PBST, biotin-labeled CD47 (Biotin-Fc-CD47) was added and reacted at 37° C. for 30 minutes, and washed with PBST for 5 times; horseradish peroxidase-labeled avidin (Streptavidin-HRP, Jiaxuan Bio.) was added and reacted at 37° C. for 30 minutes, and washed with PBST for 5 times; each well was added with 100 μl TMB (eBioscience), placed in dark at room temperature (20±5° C.) for 1-2 min; then each well was added with 100 μl 2N H₂SO₄ stop solution to terminate the reaction of the substrate, OD values were read at 450 nm on the microplate reader, and the capacities of the fusion proteins to simultaneously bind the target antigens CD38 and CD 47 were analyzed.

CD47-His = target: T3, CD47-His (UniProt Q08722 19-141, limits assumed); experiment: ELISA, CD47-His coated at 1 µg/ml, anti-human IgG HRP detection
T3 construct: also called target antigen CD47; not shown: His tag
Experimental: Target antigen CD47-His (1 μg/ml) was coated on ELISA bars, overnight at 4° C.; after washing with PBST, 10% of fetal calf serum was added and blocked at 37° C. for 1 hour; different concentrations of SS002M91, SG3847L1 or SG3847L2 was added and reacted at 37° C. for 1 hour; after washing with PBST, horseradish peroxidase-labeled goat anti-human IgG secondary antibodies (Goat Anti human IgG HRP, Thermo Fisher Scientific) were added and reacted at 37° C. for 30 minutes, and washed with PBST for 5 times; each well was added with […] (eBioscience), placed in dark at room temperature (20±5° C.) for 1-2 min; then each well was added with 100 μl 2N H₂SO₄ stop solution to terminate the reaction of the substrate, OD values were read at 450 nm on the microplate reader, and the capacity of the fusion protein to bind the target antigen CD47 was analyzed.

[3] = target: T4, CD38 on Raji cells (CD38 positive cells) (UniProt P28907 1-300, limits assumed); experiment: cell-based or functional assay
T4 sequence (looked up): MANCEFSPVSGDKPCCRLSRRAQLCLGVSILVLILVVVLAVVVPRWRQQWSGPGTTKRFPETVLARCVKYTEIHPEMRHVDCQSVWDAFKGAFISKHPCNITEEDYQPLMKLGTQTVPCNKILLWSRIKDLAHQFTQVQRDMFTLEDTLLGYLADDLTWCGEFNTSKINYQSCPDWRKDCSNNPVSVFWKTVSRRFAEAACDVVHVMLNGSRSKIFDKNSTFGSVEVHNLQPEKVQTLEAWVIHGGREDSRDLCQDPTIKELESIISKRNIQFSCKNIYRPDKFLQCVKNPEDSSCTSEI

CD38-His [4] = target: T2, CD38-His; experiment: ELISA, CD38-His coated at 1 µg/ml, anti-human IgG HRP detection
Experimental: (1) With SG003 as the control, the binding activity between the fusion protein and CD38 was evaluated by ELISA.
Target antigen CD38-His (1 μg/ml) was coated on ELISA bars, overnight at 4° C.; after washing with PBST, 10% of fetal calf serum was added and blocked at 37° C. for 1 hour; different concentrations of SG003 antibody, SG3847L1 or SG3847L2 fusion protein were added and reacted at 37° C. for 1 hour; after washing with PBST, horseradish peroxidase-labeled goat anti-human IgG secondary antibodies (Goat Anti human IgG HRP, Thermo Fisher Scientific) were added and reacted at 37° C. for 30 minutes, and washed with PBST for 5 times; each well was added with 100 μl TMB (eBioscience), placed in dark at room temperature (20±5° C.) for 1-2 min; then each well was added with 100 μl 2N H₂SO₄ stop solution to terminate the reaction of the substrate, OD values were read at 450 nm on the microplate reader, and the capacity of the fusion protein to bind the target antigen CD38 was analyzed.

T1 sequence (Q08722 19-141 limits assumed): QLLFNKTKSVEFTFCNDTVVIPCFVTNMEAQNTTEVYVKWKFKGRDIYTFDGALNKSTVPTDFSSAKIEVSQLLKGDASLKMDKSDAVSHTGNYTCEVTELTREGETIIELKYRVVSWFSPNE
T3 sequence (Q08722 19-141 limits assumed): as above

IC50 [1]: 46.8 nM | EC50 (CD38-His [2]): 0.02 nM | EC50 (CD47-His): 0.114 nM | EC50 (CD38-His [4]): 0.175 nM
B1: fusion protein SG3847L1 (bispecific antibody, human IgG1, kappa)
heavy: not shown
light: EIVMTQSPASLSASLGQRATISCRASSSVSSSAFSYVHWYQQKSGQPPKLLIYLASNLESGVPARFSGSGSGTDFTLTIHPVESEDVATYYCHHSRELPFTFGSGTKLEIKRTVAAPSVFIFPPSDEQLKSGTASVVCLLNNFYPREAKVQWKVDNALQSGNSQESVTEQDSKDSTYSLSSTLTLSKADYEKHKVYACEVTHQGLSSPVTKSFNRGEC
notes: First polypeptide chain = SG003 light chain
ADCC EC50 (specific kill rate, LDH release; Raji target cells, NK92MI-CD16a effector cells) [3]: 0.014 nM

IC50 [1]: 78.8 nM | EC50 (CD38-His [2]): 0.024 nM | EC50 (CD47-His): 0.091 nM | EC50 (CD38-His [4]): 0.149 nM
B2: fusion protein SG3847L2 (bispecific antibody, human IgG1, kappa)
heavy: not shown
light: B1 light
notes: as for B1
ADCC EC50 (specific kill rate, LDH release; Raji target cells, NK92MI-CD16a effector cells) [3]: 0.013 nM

EC50 (CD38-His [4]): 0.133 nM
B3: anti-CD38 humanized antibody SG003 (antibody, human IgG1, kappa, V domains shown)
VH: QVQLLESGGGLVQPGGSLKLSCVASGFDFSLYWMNWVRQAPGKGLEWIGKINPDSSTINYTPSLKDKFFISRDNAKNTLYLQMTKVRSEDTALYYCARLWIATGGFDYWGQGTTLTVSS
VL: EIVMTQSPASLSASLGQRATISCRASSSVSSSAFSYVHWYQQKSGQPPKLLIYLASNLESGVPARFSGSGSGTDFTLTIHPVESEDVATYYCHHSRELPFTFGSGTKLEIKR
notes: also called SG003 antibody
ADCC EC50 (specific kill rate, LDH release; Raji target cells, NK92MI-CD16a effector cells) [3]: 0.067 nM
